From the Human Domainome abundance scans (Beltran et al. 2025)

B1: Nuclear receptor subfamily 1 group D member 2, residues 103 to 171; numbered along this chain, Q14995 (parent)
chain: CKVCGDVASGFHYGVHACEGCKGFFRRSIQQNIQYKKCLKNENCSIMRMNRNRCQQCRFKKCLSVGMSR
B2: Protein S100-G, residues 1 to 79; numbered along this chain, P02633 (parent)
chain: MSAKKSPEELKGIFEKYAAKEGDPNQLSKEELKLLLQTEFPSLLKGPSTLDELFEELDKNGDGEVSFEEFQVLVKKISQ

Variants of: B1
Assay: abundance fitness (aPCA) (normalised: wild type 0, dead -1); higher = more abundant; growth selection in yeast, the domain comes from the species named
Conditions: Homo sapiens

Abundance fitness of substitutions, site by site:
C57: K -0.687 | V -1.01 | A -0.738 | S -0.836 | M -1 | R -1.21 | Q -0.59 | F -0.806 | G -0.855 | I -0.44 | D -0.689 | L -0.708
M49: T 0.147 | D 0.428 | P -0.178 | Q 0.15 | G 0.044 | K 0.12 | S 0.076 | I 0.56 | N 0.093 | E 0.114 | R -0.316 | Y 0.128 | F 0.195
S68: I -0.111 | A 0.029 | C -0.097 | M -0.023 | L -0.584 | G -0.125 | H -0.347 | N 0.186 | F -0.561 | Q 0.314 | R -0.354 | P -0.768 | V -0.526 | D -0.049 | T -0.018 | K -0.01 | E -0.087
K60: F 0.044 | V -0.249 | L -0.097 | I 0.406 | W 0.021 | G -0.428 | A -0.009 | M -0.141 | E 0.033 | N -0.056 | S -0.284
M67: G -0.744 | S -0.925 | Y -0.558 | A -0.574 | D 0.029 | W -0.415 | R -0.241 | T -0.822 | V -0.794 | H -0.973 | L -0.817 | K -0.688 | E -0.483
R69: T 0.451 | E 0.008 | L 0.143 | P 0.28 | Q 0.07 | W 0.288 | A 0.233 | G 0.112 | D -0.404 | Y -0.083 | C -0.013 | F 0.483 | M 0.318 | V 0.327 | S 0.176
V65: A -0.306 | P -0.814 | T -0.536 | F -0.739 | C -0.571 | S -0.291 | L -0.708 | Y -0.234 | I -0.308 | D -0.601 | M -0.012 | R -0.895 | K -0.851 | W -1.02 | Q -0.733
I46: P 0.068 | T -0.387 | V 0.123 | R -0.127 | N -0.012 | W -0.709 | Y 0.082 | S -0.353 | Q -0.39
R58: H 0.466 | Q -0.046 | V -0.903 | L 0.278 | Y -0.055 | F 0.109 | E -0.474 | A -0.272 | S -0.877 | P -0.698 | M 0.036 | I -0.806 | K -0.497 | W 0.565 | C 0.417 | T -0.097 | N -0.759
L63: T -0.523 | R -0.991 | V -0.502 | A -0.071 | K -0.8 | I 0.268 | Q -0.329 | G -0.92 | M -0.914 | E -0.121 | P -0.789 | N -0.911
K61: L -0.422 | A -0.328 | E -0.414 | P -0.905 | H -0.681 | C -0.717 | Y -0.547 | Q -0.647 | G -0.385 | V -0.886 | M -0.776 | S -0.769 | F -0.608 | T -0.652 | W -0.746
G66: F -0.562 | V -0.798 | M -0.574 | P -0.802 | D -0.866 | L -0.459
R51: I -0.417 | M -0.328 | Y -0.077 | P 0.216 | G -0.001 | T -0.214 | A -0.165 | W -0.077 | S -0.118 | E -0.091 | Q -0.063 | L -0.059 | V 0.026 | K 0.044
N52: V -0.532 | T -0.756 | L -0.14 | M -0.419 | S -0.395 | R -0.805 | P -0.698 | A 0.394 | E 0.139 | W -0.706 | F -0.352 | I -0.325
M47: L -0.057 | P -0.237 | S 0.184 | K -0.185 | E 0.408 | H 0.07 | D 0.283 | I -0.421 | R -0.062 | V -0.051 | T 0.307 | A 0.006 | Y -0.482
C54: E -0.77 | W -1.09 | R -0.668 | Y -0.576 | M -0.618 | Q -0.922 | S -0.688 | K -0.134 | G -0.847 | N -0.722 | L -0.749 | A -0.552 | T -0.717 | F -0.946 | D -0.749 | I -0.903 | P -0.606
R53: N 0.332 | W 0.14 | H 0.029 | C 0.3 | M 0.098 | K 0.028 | Q 0.364 | E 0.412 | P 0.142 | F 0.257 | T 0.092 | V 0.186 | G 0.103 | L 0.228 | D 0.318 | A 0.248
Q56: I -0.134 | T -0.013 | K -0.3 | P -0.205 | H -0.09 | L -0.022 | V -0.134 | R -0.127 | W 0.39 | C -0.391 | D 0.397 | E 0.1 | F -0.006 | M 0.002 | N 0.143
C62: E -0.456 | V -0.665 | N -0.812 | G -0.857 | L -0.875 | S -0.757 | P -0.843 | A -0.015 | M -0.336 | R -0.667 | Y -0.492 | T -0.948
S64: P -0.857 | L 0.044 | H -0.449 | V -0.107 | I -0.911 | G -0.481 | Q 0.12 | D -0.051 | K 0.236 | M -0.072 | F -0.545 | C -0.469 | A -0.048 | N -0.36 | E 0.346 | R -0.334 | T -0.002 | Y -0.512
F59: M -0.326 | E -0.433 | Q -0.536 | R -0.477 | G -0.395 | I -0.355 | P -0.783 | Y -0.28 | D -0.8 | A -0.601 | W -0.255 | T -0.512 | L 0.107 | S -0.809
N50: T -0.121 | K -0.346 | S -0.349 | E -0.193 | I -0.415 | Q 0.032 | V -0.306 | R -0.359 | L -0.45 | P -0.45 | G -0.383 | F -0.107 | M -0.61
Q55: Y -0.08 | R -0.418 | S -0.115 | P 0.027 | G 0.088 | N -0.265 | K -0.202 | E 0.251 | I -0.611 | L -0.006 | A 0.099 | V -0.425 | M -0.53 | C -0.324
R48: W -0.018 | I 0.117 | K -0.005 | C -0.417 | L 0.191 | Y 0.066 | P 0.346 | E 0.125 | A 0.193 | D 0.402 | M 0.443 | G 0.089 | Q 0.134 | S -0.002 | T -0.013 | V 0.241 | F -0.318

Variants of: B2
Assay: as above
Conditions: Bos taurus

Abundance fitness, by site and new letter:
M1: A -0.572 | E -0.552 | D -0.392 | F -0.193
